According to patent US20200010536A1:

B1: SA-17 (antibody, V domains shown)
VH: QVQLVQSGGAVVQPGGSLRLSCVASGFTFDDYAMHWVRQAPGKGLEWVSLITLDGGRTYYADSVKGRFTISRDNSKNSLYLQMNRLRADDTGFYYCARDIKIGEAVMITVPGQHWGQGTLVTVSS
VL: QSVVTQDPGVSVALGQTVFITCQGDTLRSNYANWFQQKPGQAPVLVMYGKNNRPSGIPDRFSGSSSGNTASLTITGAQAEDEADYYCNSRDSSGNHVVFGGGTRVTVL
B2: SA-15 (antibody, V domains shown)
VH: QVQLVQSGGGVVQPGRSLRLSCAASGFSFSTYDMNWVRQAPGKGLEWLSIISYDETNKYYADSVKGRFTISRDNSKNTLFLQMNSLKPEDSAVYHCVKVGWTLVGDGVDMWGQGTLVTVSS
VL: QPVLTQSPSSLSASVGDRVTISCRASQGISHYLAWYQQQPGKVPKLLIYAASTLQSGVPSRFSGSGSGTDFTLTISSLQPEDVATYYCQKYNGAPFTFGPGTKVDIK
B3: SA-13 (antibody, V domains shown)
VH: QVQLVESGGGLVRPGGSLRLSCAASGFTFSEYYMSWIRQAPGKGLEWLSYISSSGTTIGHADSLKGRFTISRDNARNSLFLQMNSLRAEDTAVYYCARDGVGGPRARYDAFDIWGQGTLVTVSS
VL: QSVLTQPPSVSGAPGQRVTISCTGTYSNIGAGYDVHWYQQLPGRAPKLLIYGNRNRPSGVPDRFSGSKSGTSASLAITGLQAEDEADYYCQSHDSSLSGSVFGGGTKVTVL

Biological target: LukAB heterodimer (Staphylococcus aureus)
Assay: ELISA, immobilized LukAB, anti-human IgG-peroxidase detection

Row | Binder | EC50 [µg/mL]
1 | B1 | 0.3
2 | B2 | 1.5
3 | B3 | 0.8
